Test [1] deals with T1, His-tagged neuropilin-1 b1b2 domain (NRP-1 WT) (UniProt O14786 273-586, limits assumed, FAM (5-(and-6)-carboxyfluorescein) label, amine-reactive dye).
T1 construct: domain: b1b2 domain; also called WT NRP-1; wild type NRP-1; not shown: His-tag
T1 sequence (looked up): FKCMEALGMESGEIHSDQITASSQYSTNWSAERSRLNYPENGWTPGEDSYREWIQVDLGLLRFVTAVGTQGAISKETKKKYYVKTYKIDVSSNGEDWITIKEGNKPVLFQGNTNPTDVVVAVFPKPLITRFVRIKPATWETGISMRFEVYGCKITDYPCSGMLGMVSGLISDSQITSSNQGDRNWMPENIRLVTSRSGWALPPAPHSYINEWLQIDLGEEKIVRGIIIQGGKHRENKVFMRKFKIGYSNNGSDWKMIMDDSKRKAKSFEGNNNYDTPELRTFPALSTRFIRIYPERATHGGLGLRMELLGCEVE
The test can be described thus: ELISA: immobilised peptide (10 µg/well), FAM-labelled NRP-1, fluorescence intensity. The method, then: (§1) In vitro binding of DCN-tCRK and peptides to NRP-1 was analyzed using ELISA analysis. 96-well, black FLUOTRAC™ 600, high binding plates (Greiner Bio-One, Kremsmünster, Austria) were coated with […] of 100 μg/ml DCN-tCRK in PBS at 4° C. overnight. 10 μg/well RPARPAR (SEQ ID NO: 25) and […] (SEQ ID NO: 26) peptides were coated in parallel as a positive and negative control, respectively. BSA was used as an immobilization control. The plates were washed 3 times with phosphate buffered saline (PBS) and blocked for 1 h at 37° C. with 300 μl of blocking solution (1×PBS, 1% BSA, 0.1% Tween-20). His-tagged neuropilin-1 b1b2 domain (NRP-1 WT) and triple mutant NS346A-E348A-T349A neuropilin-1 b1b2 domain (NRP-1 mutant) were expressed and purified at the Protein Production and Analysis Facility at the Sanford Burnham Prebys Medical Discovery Institute (La Jolla, Calif.) as described previously (Teesalu et al., 2009, PNAS 106:16157-16162). The recombinant proteins NRP1 WT, NRP1 mutant, and DCN-tCRK were FAM (5-(and-6)-Carboxyfluorescein, #90024, Biotium Inc, CA, USA) labeled by mixing 1:10 ratio of amine-reactive FAM dye (diluted in DMSO final concentration 0.2%) and protein. […] After adding 100 μl PBS in each well, the plate was immediately read with top read mode using a fluorescence reader (Flex Station II, Molecular Devices; peak excitation=485 nm, peak emission=530 nm, cut off=515).
On the technique in general: An ELISA detects its analyte on a solid surface through an enzyme-linked reagent.

Test [2] has as its target T2, 6xHistag-DCN-tCRK fusion protein (human, UniProt P07585 31-359, glycosaminoglycan chain (mostly chondroitin sulfate) attached to the DCN core, residue not stated; FAM-labelled in the cell assay only).
T2 construct: Produced in HEK293F cells; Immobilised unlabelled on the plate in the ELISA; also called tCRK-DCN; FAM-DCN-tCRK
The experiment in a line: ELISA: immobilised DCN-tCRK (100 µg/ml coating), FAM-labelled NRP-1 mutant, fluorescence intensity, compared with BSA control. The method, then: as §1

Positions count from the first letter of the chain named. Names may count otherwise. Ends that are not written are not given here.

T2 sequence (P07585 other isoform, or with tags, fused parts or gaps): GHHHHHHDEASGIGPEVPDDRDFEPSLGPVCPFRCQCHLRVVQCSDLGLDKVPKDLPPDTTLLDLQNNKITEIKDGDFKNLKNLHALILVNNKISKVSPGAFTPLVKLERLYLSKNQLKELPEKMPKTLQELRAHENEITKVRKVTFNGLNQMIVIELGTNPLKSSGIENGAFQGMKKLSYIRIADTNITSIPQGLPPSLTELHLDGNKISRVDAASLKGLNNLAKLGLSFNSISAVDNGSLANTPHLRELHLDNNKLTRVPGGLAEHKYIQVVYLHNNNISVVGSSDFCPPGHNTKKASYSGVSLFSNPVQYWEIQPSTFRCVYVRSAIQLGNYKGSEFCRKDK

RPARPARA (not fully specified, also called negative peptide) [RPARPARA peptide]: the binding result in test [1] was “no binding (tested: 20 µg/well FAM-labelled NRP1 WT)”.

B1: triple mutant NS346A-E348A-T349A neuropilin-1 b1b2 domain (NRP-1 mutant) (receptor, UniProt O14786 273-586, looked up)
chain: T1 sequence (looked up) with S74A, E76A, T77A
modifications: FAM (5-(and-6)-carboxyfluorescein) label, amine-reactive dye
notes: domain: b1b2 domain; Printed as 'NS346A-E348A-T349A'; also called mutant NRP-1; not shown: His-tag
With B1, the binding result in test [2] was “no binding (tested: 20 µg/well FAM-labelled NRP1 mutant)”.

The record behind these values is patent US20230167162A1 (TAMPERE UNIVERSITY FOUNDATION SR, published 2023).
